Data as given in the supplement of paper PMC10724198.
± gives the standard deviation of the averaged measurements.

Legend:
[1] = test system: Saccharomyces cerevisiae; experiment: protein stability index of tFT-peptide fusion (C-terminal peptide) (PSI (0-1 scale)); higher = more stable (slower turnover)
Experimental: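 MPS profiling in S. cerevisiae of the tFT-X12 degron library: putative degron peptides plus stable controls, 12 aa, fused to the C-terminus of a sfGFP-mCherry timer. Cells are FACS-sorted into 8 mCherry/sfGFP bins and deep-sequenced. PSI runs from 0 (unstable) to 1 (stable). Backgrounds are wild type, das1Δ and doa10Δ at 30 °C, and wild type, das1Δ, cdc34-1 and cdc53-1 at 37 °C; 2-3 technical replicates each.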

[2] = test system: Saccharomyces cerevisiae; experiment: as above; details: genetic background: wild type; temperature: 30 C
[3] = genetic background: cdc34-1, temperature: 37 C
[4] = genetic background: cdc53-1, temperature: 37 C
[5] = genetic background: das1 deletion, temperature: 30 C
[6] = genetic background: das1 deletion, temperature: 37 C
[7] = genetic background: doa10 deletion, temperature: 30 C
[8] = genetic background: wild type, temperature: 30 C
[9] = genetic background: wild type, temperature: 37 C
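Note: PSI is a weighted mean of sequencing reads over stability bins, variants kept only with over 10 reads, mCherry proximal and sfGFP distal, peptide attached via GGGS linker.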

| Sequence | protein stability index [1, 3] | protein stability index [1, 4] | protein stability index [1, 5] | protein stability index [1, 6] | protein stability index [1, 7] | protein stability index [1, 8] | protein stability index [1, 9] | protein stability index [2] |
| --- | --- | --- | --- | --- | --- | --- | --- | --- |
| SLIVLRSIAVLD | 0.484 ± 0.015 | 0.505 ± 0.027 | 0.39 ± 0.02 | 0.543 ± 0.038 | 0.3743 ± 0.0022 | 0.392 ± 0.025 | 0.518 ± 0.013 | 0.449 ± 0.012 |
| NFFLLFFFFLSF | 0.455 ± 0.037 | 0.4876 ± 0.0038 | 0.398 ± 0.045 | 0.535 ± 0.0082 | 0.4656 ± 0.0034 | 0.41 ± 0.043 | 0.512 ± 0.022 | 0.415 ± 0.049 |
| FSFSCFFFVLFV | 0.0608 ± 0.036 | 0.0424 ± 0.002 | 0.0913 ± 0.018 | 0.11 ± 0.022 | 0.265 ± 0.0023 | 0.0703 ± 0.038 | 0.0898 ± 0.017 | 0.127 ± 0.0048 |
| RLFVRIQLSLLF | 0.313 ± 0.036 | 0.351 ± 0.012 | 0.31 ± 0.025 | 0.398 ± 0.0092 | 0.33 ± 0.0035 | 0.265 ± 0.033 | 0.3506 ± 0.00077 | 0.351 ± 0.0049 |
| VVCPCIIYVPGV | 0.619 ± 0.039 | 0.643 ± 0.011 | 0.455 ± 0.014 | 0.637 ± 0.011 | 0.455 ± 0.016 | 0.461 ± 0.0066 | 0.613 ± 0.021 | 0.466 ± 0.022 |
| GFVVYLLLSYLF | 0.34 ± 0.016 | 0.413 ± 0.035 | 0.279 ± 0.039 | 0.482 ± 0.016 | 0.256 ± 0.0032 | 0.28 ± 0.019 | 0.437 ± 0.024 | 0.333 ± 0.091 |
| MWFVGLCLHFFM | 0.472 ± 0.029 | 0.5504 ± 0.0014 | 0.409 ± 0.024 | 0.546 ± 0.035 | 0.344 ± 0.0067 | 0.364 ± 0.017 | 0.499 ± 0.019 | 0.3985 ± 0.0019 |
| VGTGVGEGGGVV | 0.679 ± 0.029 | 0.72922 ± 0.00013 | 0.645 ± 0.016 | 0.73 ± 0.011 | 0.654 ± 0.018 | 0.649 ± 0.013 | 0.719 ± 0.022 | 0.711 ± 0.011 |
| GTIFLIRVLLFG | 0.154 ± 0.0049 | 0.284 ± 0.026 | 0.222 ± 0.024 | 0.387 ± 0.029 | 0.171 ± 0.015 | 0.213 ± 0.023 | 0.357 ± 0.069 | 0.284 ± 0.028 |
| CMLGVVRVLVWF | 0.028 ± 0.0058 | 0.138 ± 0.075 | 0.129 ± 0.029 | 0.1929 ± 0.0009 | 0.101 ± 0.0035 | 0.105 ± 0.051 | 0.17 ± 0.027 | 0.186 ± 0.033 |
| CYSLLFVSVILF | 0.123 ± 0.091 | 0.158 ± 0.036 | 0.151 ± 0.015 | 0.271 ± 0.023 | 0.135 ± 0.01 | 0.138 ± 0.021 | 0.248 ± 0.0038 | 0.218 ± 0.023 |
| VVVLFGRLVVIC | 0.48 ± 0.01 | 0.611 ± 0.019 | 0.448 ± 0.033 | 0.598 ± 0.017 | 0.327 ± 0.0075 | 0.332 ± 0.029 | 0.5402 ± 0.003 | 0.431 ± 0.048 |
| VIGFGEVWIRCV | 0.358 ± 0.018 | 0.57 ± 0.058 | 0.435 ± 0.025 | 0.619 ± 0.023 | 0.0708 ± 0.013 | 0.0831 ± 0.01 | 0.0868 ± 0.013 | 0.141 ± 0.0034 |
| FFFSFSFPFLSF | 0.462 ± 0.014 | 0.481 ± 0.027 | 0.464 ± 0.023 | 0.559 ± 0.0068 | 0.55 ± 0.022 | 0.477 ± 0.018 | 0.555 ± 0.031 | 0.518 ± 0.034 |
| VLVVLRSEVSLS | 0.286 ± 0.0038 | 0.398 ± 0.022 | 0.227 ± 0.027 | 0.3847 ± 0.0022 | 0.1948 ± 0.0011 | 0.22 ± 0.02 | 0.371 ± 0.0053 | 0.284 ± 0.015 |
| MALAVRVVFCGA | 0.3299 ± 0.0012 | 0.338 ± 0.0067 | 0.275 ± 0.032 | 0.436 ± 0.015 | 0.227 ± 0.0095 | 0.27 ± 0.025 | 0.418 ± 0.01 | 0.371 ± 0.058 |
| LLVFSLLRPFLF | 0.615 ± 0.072 | 0.643 ± 0.018 | 0.567 ± 0.039 | 0.6602 ± 0.0048 | 0.414 ± 0.028 | 0.417 ± 0.023 | 0.5623 ± 0.003 | 0.501 ± 0.016 |
| WDPKISVFVLID | 0.439 ± 0.056 | 0.53 ± 0.11 | 0.344 ± 0.024 | 0.55 ± 0.025 | 0.246 ± 0.013 | 0.291 ± 0.018 | 0.479 ± 0.0098 | 0.403 ± 0.0096 |
| FPPRLIPLLARS | 0.442 ± 0.028 | 0.4556 ± 0.00087 | 0.31 ± 0.044 | 0.511 ± 0.0063 | 0.2401 ± 0.0016 | 0.291 ± 0.025 | 0.4713 ± 0.0013 | 0.372 ± 0.02 |
| VIWVLGALASWG | 0.5892 ± 0.0018 | 0.6304 ± 0.0041 | 0.479 ± 0.035 | 0.632 ± 0.011 | 0.468 ± 0.02 | 0.479 ± 0.0059 | 0.618 ± 0.015 | 0.556 ± 0.098 |
| ATLWVWCFSSHV | 0.601 ± 0.047 | 0.6418 ± 0.003 | 0.469 ± 0.019 | 0.62 ± 0.013 | 0.438 ± 0.023 | 0.447 ± 0.021 | 0.5991 ± 0.0014 | 0.497 ± 0.078 |
| LFVGLVSFRIGA | 0.563 ± 0.039 | 0.573 ± 0.014 | 0.428 ± 0.029 | 0.601 ± 0.0068 | 0.399 ± 0.018 | 0.419 ± 0.021 | 0.575 ± 0.0069 | 0.477 ± 0.029 |
| LLPFSLLDLLLC | 0.658 ± 0.028 | 0.707 ± 0.021 | 0.58 ± 0.028 | 0.681 ± 0.016 | 0.361 ± 0.029 | 0.404 ± 0.017 | 0.607 ± 0.0088 | 0.488 ± 0.066 |
| VFMTLHCITIYK | 0.452 ± 0.016 | 0.537 ± 0.068 | 0.379 ± 0.029 | 0.519 ± 0.052 | 0.338 ± 0.0065 | 0.348 ± 0.051 | 0.547 ± 0.0084 | 0.458 ± 0.0029 |
| SNFQLLPLFKNI | 0.791 ± 0.12 | 0.789 ± 0.0083 | 0.651 ± 0.044 | 0.799 ± 0.027 | 0.182 ± 0.0062 | 0.216 ± 0.041 | 0.546 ± 0.056 | 0.39 ± 0.032 |
| SVLRCPVILLAY | 0.0423 ± 0.031 | 0.0232 ± 0.0025 | 0.0735 ± 0.036 | 0.0681 ± 0.008 | 0.0717 ± 0.0093 | 0.078 ± 0.017 | 0.0527 ± 0.02 | 0.0975 ± 0.012 |
